Measurements from the nanobody polyreactivity screen of Harvey et al. (2022).

Test: yeast display, Sf9 membrane polyspecificity reagent, FACS + sequencing; frameworks hold sequencing errors
In short: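 A synthetic nanobody library was expressed on Saccharomyces cerevisiae BJ5465 by galactose induction for 36–48 hours. The library was stained for 1 hour at 4 °C with 10% biotinylated, detergent-solubilized Sf9 membrane reagent and enriched with streptavidin microbeads before FACS. Low and high (top ~1%) gates were set on anti-HA fluorescence for expression and streptavidin fluorescence for reagent binding, and each polyreactivity label reflects the gate of origin.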

Sequence	polyreactivity (PSR sort gate)
QVQLVESGVGLVQAGGSLRLSCAASGRIFVKYAMGWYRQAPGQEREFVAAITQGGGRTFYADSVKGRFTSSRDNAKNTVYLQMNSLKPEDTAVYYCAATGRGYGRRYFVVYRYDYWGQGTQVTVSS	high polyreactivity
QVQLVESGVGLVQAGGSLRLSCAASGRIVWGYAMGWYRQAPGKERELVATITRGGSTNYADSVKGRFTISRDNAKHTVYLQMNSLKPEDTAVYYCARDWGKSEYDYWGQGTQVTVSS	high polyreactivity
QVQLVESGVGLVQAGGSLRLSCAASGSIFFYAMGWYRQAPGKERELVADITYTGGSKYADSVKGRFTISRDNAKNTVYLQMNSLKPEDTAVYYCAKLDGGLFDYWGQGTQVTVSS	low polyreactivity
QVQLVESGVGLVQAGGSLRLSCAASGSIFGFYAMGWSRQAPGKERELVAAISDSGDSTYYADSVKGRFTISRDNAKNTVYLQMNSLKPEDTAVYNCATDGRSNYYWGDYWGQGTQVTVSS	low polyreactivity
QVQLVESGVGLVQAGGSLRLSCAASGSIFGFYAMGWYRQAPGKERELVAAITSGDSTHYADSVKGRFTISRDNAKNTVYLQMNSLKPEDTAVYYCAASAPYRYYRSAYYYWGQGTQVTVSS	low polyreactivity
QVQLVESGVGLVQAGGSLRLSCAASGSIFTYNAMGLYRQAPGKERELVAAISRRGGTTYYADSVKGRITISRDNAMNTVYLKMNSLKPEDTAVYYCNVARHYAVESGFWGPGTQVTVSS	high polyreactivity
QVQLVESGVGLVQAGGSLRLSCAASGSIINFYAMGLYRQAPGKERELVAAINYNDINTYYADSVKGRFTISRDNAKNTVYLQMNSLKPEDTAVYYCNAELNVQYLYGYTGEYDYWGQGTQVTVSS	low polyreactivity
QVQLVESGVGLVQAGGSLRLSCAASGSILFYYAMGWYRQAPGKERELVAAITYSGARSYYADSVKGRFTISRDNAKNTVYLQMNSLKPEDTAVYYWAADQVYGIGYEYWGQGTQVTVSS	low polyreactivity
QVQLVESGVGLVQAGGSLRLSCAASGSTFDTYAMGWYRQAPGKERELVAAITSSGSTYYADSVKGRFTISRDNAKNTVYLQMNSLKPEDTAVYYCAADLSYLYAHNPGDYWGQGTQVTVSS	low polyreactivity
QVQLVESGVGLVQAGGSLRLSCAASGSTFEYNAMGWYRQAPGKERELVASSTNYADSVKGRFTISRDNAKNTVYLQMNSLKPEDTAVYYCAREQGVNRNHDYWGQGTQVTVSS	low polyreactivity
QVQLVESGVGLVQAGGSLRLSCAASGSTFGRYAMGWYRQAPGKERELVARISWGGGSTYYADSVKGRFTISRDNAKNTVYILMISLKPEDSAVYDCATRVYRSAVSYDYWGQGTQVTVSS	high polyreactivity
QVQLVESGVGLVQAGGSLRLSCAASGSTFVKYVIGWYRQAPGKERELVAAISRSGGSTYYADSVKGRFTISRDNAKNTDYLQMNSLKPDDTAVYYCAARLFYRLDYRGGYYYWGQGTQVTVSS	high polyreactivity
QVQLVESGVGLVQAGGSLRLSCAPSGSIFGRNAMGWYRQAPGKERELVAAISGGGSTNYSDSVKGRFTISRDNAKNTVYLQMNSLKPEDTAVYYCNTYPGSRHWWYDYWGQGTQGTVSS	high polyreactivity
QVQLVESGVGLVQAGGSLRLSCASSGRIFGHYAMGWYRQAPGTERELVAAISWRGGRTYYADSVKGRFTISRDHAKNTVYLQMNSLKPEDTAVYYCAAGSSRVFRKAGITRPSGLYYYWGQGTQVSVSS	high polyreactivity
QVQLVESGVGLVQAGGSLRLSCASSGSIFGRYTMGWYRQAPGKERELVAAITLRGGSTYYADSVKGRFTISRDNAKNTVYLQMNSLNQEDSAVYYCANDGWKQSAYDYWGQGTQVTVSS	low polyreactivity
QVQLVESGVGLVQAGGSLRLSCVASGLTFSRYAMGWYRQAPGKERELVAAISRRGGTTYYADSVKGRFTISRDNAKNTVYLQMKSLKPEDTAVYYCGAGYITWGSGNWVVTPYAYWGQGTQVSVSS	high polyreactivity
QVQLVESGVGLVQAGGSLRLSSAASGSIFHSYAMGWYRQAPGKERELVASITASGDSTYYADSVKGRFTISRDNAKNTVYLPMNSLKPEDTAVFYCNTQAVYGGGEGGYDYWGQGTQVTVSS	low polyreactivity
QVQLVESGVGLVQAGGSLRLSSAASGSISYSYAMGWYRQAPGKERELVAAITWVGDSTYYADSVKGRFTISRDNAKNTVYLQMNRQKPEDTAVYYCAADLRFTYPVYRHGGGYDYWGQGTQVTVSS	low polyreactivity
QVQLVESGVGLVQAGGSLRLTCAASGRIFDYYAMGWSRQAPGKETELVARISRGATTNYADSVKGRFTISRDNAKNTVYLQINSLKPEDTAVYSCNARQYLAYVSWKGMGFWGQGTQVTVSS	high polyreactivity
QVQLVESGVGLVQAGGSLSLICAASGRIFWPNAMGSYRQAPGKERELVAAISRGGNTNYADSVKGRFTISRDNAKNTVYLQMNSLKPEDTAVYYCAARNFALGYRFDYWGQGTQVTVSS	high polyreactivity
QVQLVESGVGLVQAGGSLSLSCAASGFTISLNTMGWYRQAPGKERELVAAITYSGTRTYYADSVKGRFTISRDNAKNTVDLQMNRLKPEDTAVYYCAARHGQSWQWLEYDYWGQGTQVTVSS	low polyreactivity
QVQLVESGVGLVQAGGSLSLSCAASGRIFTYNALGWYRQAPGKERELVAAISALGGITYYADSVKGRFTISRDNAKITVYLQMNSLKPEDTAVYYCNKRYSSWSGVHDYWGQGTQVTVSS	high polyreactivity

Sequence	polyreactivity (PSR sort gate)
QVQLVESGVGLVQAGGSVRLSCAASGRTFTRYAMGWYRQAPGKEREWVAAITWSGGSTYYADSVKGRFTISRDNAKNTVYLQMNSLKPEDTAVYYCNAQRYGLFGSEHGYWGQGTQVTVSS	high polyreactivity
QVQLVESGVGLVQAGGSVRLSCAASGRTFYRYAMGWYRQAPGKERELVAAISSGGSTYYADSVKGRFTISRDNAKNTVYLQMNSLKPEDTAVYYCNADYGRRNHMDYWGQGTQVTVSS	low polyreactivity
QVQLVESGVGLVQAGVSLRLSCAASVSISTPYTMGWSRPAPGKERELVAAISWIGDTTSYADSVKGRFTISRDNAKNTVYLQMNRLKPEDTAVYYCNAEHRGYDYWGQGTQVTVSS	low polyreactivity
QVQLVESGVGLVQAVGSLRLSSPTSGIIFRYYSMVWYRHAPGKESEYVAVITRRGGGTYYAYSVKGRFTISRDNAKNTVYFEMNSLKPEDTAVYYCAKDFTGHYPKGFDYWGQGTQVTVSS	low polyreactivity
QVQLVESGVGLVQSGGSLRLSCAASGFIFRWYAKGWYRQAPGKERELVAAISGGGSSTYYADSVKGRFTISRDNEKNTVYLQMNSLKPEDNAVYYCAAYNTYLGYPYYYWGQGTQVTVSS	high polyreactivity
QVQLVESGVVLVEAGGSLRLSCAASGRILSVYAMGWYRQAPRKERELVAAIRRGVGSTYYADSVKGRFTISRDNAKNTVYLQMNSLKPEDTADYYCAPYSYHNRIRYDSWGQGTQVTVSS	high polyreactivity
QVQLVESGVVLVQAGGSLRLSCAASGSTFVRYAMGWYRQAPGKERELVAANSRSGGRTYYADSVKGRFTISRDNAKHTVYLQMNSLKPEDTAVYYCYPYYIASTFDYWGQGTQVTVSS	high polyreactivity
QVQLVESLGGLVQAGASLRLSCAASARTFVIYSMGSYREAPGKERELVAAITWNGETTYYADSVKGRFTISRDNAKNTVYLQMNSLKPEDTAVYYCAAETRSEYHYWGQGTQVTVSS	high polyreactivity
QVQLVESLGGLVQAGGSLRLSCAASGRTFPGYAMGWYRQAPGKERELVAAISYTGTRTYYADSVKGRFTISRDNAKNTVYLQMNSLKPEDTAVYFCAAGVQRVSGSYGYWGQGTQVTVSS	high polyreactivity
QVQLVESLGGLVQAGGSLRLSSAASGSIFRRYAMGWYREAPGKERELVAAITSGDTTKYADSLKGRFTISRDNAKNNVYLHMNSLKPEDTAVYYCNKKGWPRFVHGFLRRDDYWGQGTQVTLSS	low polyreactivity
QVQLVESRAGLVQAGGSLRLSCAASGSTRNRNVMGWYRPAPGKERELVAVITYGVGSTYYADSVKGRFTISRDNAKNTVYLQMNSLKPEDTAVYYCNKDPLVFDYWAQGTQVTVSS	low polyreactivity
QVQLVESRGCLVQAGGSLRLSCAASGRIFYYYDMGWYRQAPGKERELVAAITYSDSSTYADSVKRRFTISRDNAKNTVYLQMNSLKPEDTAVYYCAADYVYPGVRLEMDYWGQGTQVTVSS	low polyreactivity
QVQLVESRGCLVQAGGSLRLSCAASGSTFYPYAMGWYRQAPGKERELVAGITVIDGSTYYADSVKGRFTISRDNAKNTVYLQMNSLKPEDTAVYYCAFDAPNQVQEYGYWGQGTQVTVSS	low polyreactivity
QVQLVESRGFLVQAGGSLRLSCAAYGSSFFTYAMGWYRQAPRKERELVAGINWSGGSTYADSVKGRFTMSRDNAKNTVYLQMNSLKPEDTAVYFCAAKYYSERSRYHYWGQGTQVTVSS	low polyreactivity
QVQLVESRGGIVQAGGSLRLSCAASGRIFQYYAKGWYRQAPGKEWELVAAIISSGGRTYYADSVKGRFTISRDNAKKTVYVQMNSLKPEDTAVYYCNAVLSTRGMDFWGQGTQVTVSS	high polyreactivity
QVQLVESRGGLVQAGGSLPLSCAPSGRIFVRYAMGWYRQAPGKERELVAAISKSGGTTYYADSVKGRFTISRDNAKNTVYLQMNSLKPEDTAVYYCYALVRRRPGYIRYDYWGQGSQVTVSS	low polyreactivity
QVQLVESRGGLVQAGGSLRLRCAASGRIIIAYMAWYRQAPGKERELVAAIDSGASTYYADSVKGRFTISRDNAKNNVYLQMNSLIAEDTAVYYCASDVVYDYGGMDYWGQGTQVTVSS	low polyreactivity
QVQLVESRGGLVQAGGSLRLSCAASGFIFKTNAMGWYRQAPVKERELVAAISNSDGSTYYADSVKGRFTISRDNAKNTVYLQMNSLKPEDTAVYYCAADRTDFWPYDYWGQGTQVTVSS	low polyreactivity
QVQLVESRGGLVQAGGSLRLSCAASGFILSWYAMGWYRQARGKERELVAAISTSGDSTYYADSVKGRFTISRDNAKNTVYVQMNRLKPEDTAVYYCAAVKVSAGTSRGYYYWGPGTQVTVSS	high polyreactivity
QVQLVESRGGLVQAGGSLRLSCAASGFTFERYTMGWYRQAPGKERELVAGINYSGGSTYYADSVKGRFTISRDNAKNTVYLQMNSLKPEDTAVYYCAKDFPYSRYRRRYYYWGQGTQVTVSS	high polyreactivity
QVQLVESRGGLVQAGGSLRLSCAASGFTFRLYAMGWSRQAPGKERELVAALTGRGGNTYYADSVMGRFTISRDNAKNTVYLQRNSLNPEDTAVYYCNRYTQWVGYDYWGQGTQVTVSS	high polyreactivity
